# Source: the supplement of paper PMC9170038
# Tested on: MS2 coat protein
# Test: apparent KD of MS2 coat protein; higher = weaker reporter binding
# Details: Eterna round: R107
# Procedure, shortened: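 Illumina sequencing clusters served as templates for on-chip transcription of the designed RNA switches. SNAP-549-labelled MS2 coat protein was then titrated in twofold steps from 0.7 or 1.5 nM to 3 µM, allowing 0.8–1.5 h per step at first and 10–20 min per step later. The buffer held 100 mM Tris-HCl pH 7.5, 80 mM KCl and 4 mM MgCl2, without or with constant ligand. Apparent KD is the median per design of normalised cluster binding-curve fits.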
# [1] = input ligand: theophylline 20 uM
# [2] = input ligand: tryptophan 2.4 mM
# [3] = input ligand: theophylline 2 mM
Sequence,apparent KD of MS2 coat protein (input ligand: arginine 13.2 mM),apparent KD of MS2 coat protein [1],apparent KD of MS2 coat protein [2],apparent KD of MS2 coat protein [3],apparent KD of MS2 coat protein (input ligand: none)
CAAUGCGGUUAGGAUACCAGCGACACACACUUCUCACAACACAUGAGGAUCACCCAUGUCCGCCCUUGGCAGCCUUGACUAAGGU [theeternabot_exclusion_MS2_Theo_B_39],30.2 nM,51.8 nM,27.2 nM,–,–
CACGAAAGAUCGGCCGCCACUAAUCGAUGUGUUCUUUCACAUGAGGAUCACCCAUGUUCUUGCGUUAGGACCGGGAUUGAGCGUG [#01 Exclusion Tryptophan B],32.1 nM,50.1 nM,–,52.4 nM,–
CACGAAAGAUCGGCCGCCACUCAUGUUUCUUACAUGAGGAUCACCCAUGUAUUUUCUUUCUUUUAGAGGACCGGGAUCGAGCGUG [#01 Same State - Tryptophan B],46.8 nM,78.4 nM,–,47.2 nM,–
CAGGCCUUGCCCGGUGUUCCGAAAGUGGAAGGAGCGCACAUUGGUGCAGGUAGGUCGCCACAUGAGGAUCACCCAUGUCUAGGCC [Aveatti],54.9 nM,111 nM,50.2 nM,22.5 nM,20 nM
CAUACUUUAGUAUGACAUGUGGGCAGUGAUACCAGAUACGAAAGUAUCCCUUGGCAGCACAACAUGAGGAUCACCCAUGUAAUUA [Theophylline A 2],26.1 nM,52 nM,37.3 nM,–,–
CAUCCUAGUACAUGAGGAUCACCCAUGUAUCGAGGACCGGUACGGCCGCCACUCGAAUGGCGGAUCGUUGAUCCUUUAGGAUGAA [Tryp A Ex t4],16.5 nM,20.7 nM,19.2 nM,20.9 nM,14.3 nM
CAUGGGCUAAGACAUUAUUCGUAUUUUGAUACCAGAAAAUUGGCGUUCCCUUGGCAGCAAUAUACAUGAGGAUCACCCAUGUCCC [theeternabot_exclusion_MS2_Theo_A_23],38.8 nM,70.9 nM,58.3 nM,–,–
CCAUCUUCAUCGGCCGCCACUGAACCAAGGAGACAUGAGGAUCACCCAUGUAUGGGAAACCAUCAUAGGACCGGGAUGAAGGUGG [doubleHookLine],36 nM,56.1 nM,–,48.1 nM,–
CCAUGCGUAGGAAGGAGCGCAUACUUCACAUGAGGAUCACCCAUGUCGAGACGUGAGUCAGUGCAGGUAGGUCGCCUACGCAUGG [Same State - Arginine B (Freestyle 27)],16.6 nM,24.3 nM,19.4 nM,20.6 nM,17.6 nM
CCCUGGGUGGGAAGGAGCGCAUAGUGAACAUGAGGAUCACCCAUGUGCAGACGUGAGUCAUUGCAGGUAGGUCGCCCACCCAGGG [SS-ArgB22],10.2 nM,21.4 nM,20.9 nM,30.2 nM,18.9 nM
CCGAACAUGAGGAUCACCCAUGUUAGGGAUACCAGCUCAGACAUGGGCCCUUGGCAGCUCUAUAGCUGACGAAAGUCAGCAUCGG [#15 SameState-TheophyllineA],36.1 nM,46.3 nM,35.4 nM,23.7 nM,35 nM
CCGGAGACCUCGGCCGCCACUCUCCAUGAGGAUCUCCCAUGUAACAUGAGGAUCACCCAUGUGCUGAGGACCGGGAGGUCCUCCU [Same State Tryptophan B GF 20],18.7 nM,16.4 nM,20.9 nM,17 nM,13.2 nM
CCGGGCCCGGGCGACCGGGCCCGGACUGAAGGAGCGGGAAUAAACCCAGGUAGGUCGCAGAGAUCCACAUGAGGAUCACCCAUGU [!0.V],31.7 nM,49.6 nM,48.6 nM,50.9 nM,30.9 nM
CCUCGAUUUUGAUACCGAUAUGUCUUUGAUACCAGCGCCAUAGUACGCCCUUGGCAGCAAGAAACAUGAGGAUCACCCAUGUUAA [theeternabot_exclusion_MS2_Theo_A_36],16.9 nM,26.4 nM,16.7 nM,–,–
CCUCGUGCAACAUGAGGAUCACCCAUGUACCGAGGACCGGUACGGCCGCCACUCGAAAACGAGUACCAUUAGCGAAAGCUGAUGG [Trp A SS mod1],11.9 nM,16.4 nM,14.1 nM,14.2 nM,13.1 nM
CCUGAUAACUGAAGGAGCGAGAAACCCUACAUGAGGAUCACCCAUGUAUACACGGGAACUUCUCAGGUAGGUCGCAGUAUGUCGG [Rienat],71.2 nM,106 nM,93 nM,145 nM,80.2 nM
CCUUAACAUGAGGAUCACCCAUGUCUGGAUACCAGAUACAGAUAAAUCCCUUGGCAGCCAAAAUAUGAAAGAAAUAAAAUAAGAA [theeternabot_sameState_MS2_Theo_A_29],27.5 nM,66.3 nM,50.2 nM,–,–
CGACGAGACCUGGAUACCAGCGACAUGAGGAUCACCCAUGUAUGUGGAUCAGCCAUGAUAUGCCCUUGGCAGCCACCGAGGUCGG [PPPMULLIN],7.81 nM,20.8 nM,12.3 nM,31.7 nM,11.6 nM

Sequence,apparent KD of MS2 coat protein (input ligand: arginine 13.2 mM),apparent KD of MS2 coat protein [1],apparent KD of MS2 coat protein [2],apparent KD of MS2 coat protein [3],apparent KD of MS2 coat protein (input ligand: none)
CGAGCUGACGGAAGGAGCGAAGCCUACUCGGUGUUCCCACAUGAGGAUCACCCAUGUGGGCUUCAGGUAGGUCGCCGAACAGUCG [Vecequlala],26.1 nM,61 nM,32.4 nM,86.9 nM,40.7 nM
CGAGUGCUGUCGGCCGCCACUGCACAUGAGGAUCACCCAUGUAAAAGCUGGCUGUGACUGGUGUUCAGGACCGGGACAGGGUCUU [Inriedzaan],10.9 nM,13.8 nM,–,11.7 nM,–
CGCCACUCGAGUGAUCCUCACGAGUGGCUACGAGGACCGGUACGGCCGCCACUCGAAUUAACAUGAGGAUCACCCAUGUAAUCUA [Brourdmod08],30 nM,200 nM,–,322 nM,–
CGCCGCGGGAGAAGGAGCGCGAUAACAUAACAUGAGGAUCACCCAUGUAAGAAAUUAAUCAUGCAGGUAGGUCGCUCCCGCGGCG [Same State Arginine B GF 4],16.3 nM,26.5 nM,22.5 nM,23.3 nM,19.5 nM
CGGUCGGUCGGCCGGUGAUUAUGGGAUGAAGGAGCGUGGGAAGCUACAGGUAGGUCGCAUCCGAAAGAUGAGGAUCACCCAUCUU [SSArg A #24Alt-Ms2 Mod],24.4 nM,34.4 nM,21.5 nM,46.4 nM,30.3 nM
CGGUUUGUGAUGGAUACCAGCAGAGAAAAUGUUUAUCCUAACAUGAGGAUCACCCAUGUGUGCCCUUGGCAGCUGUUGUGGGCUG [8.W],46 nM,72.6 nM,49.7 nM,–,–
CGUAUGUAGACGGCCGCCACUGGAACAAGAGGAUCACCCUUGUACAGGGUGGGACUAUCGAGAGUCAGGACCGGGUCUACAUACA [Tryp B Ex t2],112 nM,190 nM,19.7 nM,140 nM,150 nM
CGUGAUACUGGUAUACUCUGAAGAUCAAUUCGAGGACCGGUACGGCCGCCACUCGUUAGUAGACAUGAGGAUCACCCAUGUUAGU [theeternabot_exclusion_MS2_Trp_A_48],11.8 nM,20.6 nM,–,17.7 nM,–
CUAAUUAUAUCGGCCGCCACUUACUCAUGAGGUAACAACAUGAGGAUCACCCAUGUUUGAGGAUCAAGGACCGGGAUAUAAUUAG [AstrosSSTry#24],30.5 nM,33 nM,–,34.9 nM,–
CUAUAAGUACCGGUCCUCAGAUCCUCAUGACGAGGACCGGUACGGCCGCCACUCGAAACAUGAGGAUCACCCAUGUAAUAACAUU [Brourdmod22],18.5 nM,30.1 nM,–,24.9 nM,–
CUAUAAGUACCGGUCCUCAGAUCCUCAUGACGAGGACCGGUACGGCCGCCACUCGAAACAUGAGGAUCACCCAUGUAAUAAUACC [Brourdmod16],17.5 nM,47.5 nM,–,62.6 nM,–
CUGCCAUGCAGAGAUACCAGUGAGCUCAGAACAUGAGGAUCACCCAUGUAGGUUGCCGAUCACCCUUGGCAGCUCUGCAUGGCAG [*$+%!],38.7 nM,28.4 nM,29.6 nM,10.9 nM,30.8 nM
CUGUUUGUUUGGGUCUGUCAAAAGAACGAUACCAGCCGCAUUAUGGGCCCUUGGCAGCGUAGGACAUGAGGAUCACCCAUGUACG [theeternabot_exclusion_MS2_Theo_A_16],16 nM,22 nM,16.2 nM,–,–
GAACAAGGUUUCUUGUUCGGUCGCUGAGAAGGAGCGCGGUAACCCGCAGGUAGGUCGCUCAGAAAUACAUGAGGAUCACCCAUGU [Anaa],17.4 nM,26.4 nM,17.8 nM,21.7 nM,18.7 nM
GAAUCUACAAACGAUACCAGAUCCGGCUGCCACAUGAGGAUCACCCAUGUCUAGCGACUCAUCCCUUGGCAGCGUGUGCAUCCCG [theeternabot_sameState_MS2_Theo_B_37],147 nM,612 nM,629 nM,–,–
GAAUUAUGACGUGAUACCAGUGGUCAAUACUGGGAACUUAACAUGAGGAUCACCCAUGUCCACCCUUGGCAGCACGCUGACAAUC [theeternabot_exclusion_MS2_Theo_B_14],43.5 nM,133 nM,79.6 nM,–,–
GACCUUGCCUGAAGGAGCGAGGUAAAUAGGGUUGAGCAUACAUGAGGAUCACCCAUGUGGCCUCAGGUAGGUCGCAGGUAGGACA [Exclusion Arginine B GF30],97.1 nM,224 nM,114 nM,189 nM,114 nM
